Changes are numbered by the printed parent chain. Names may count otherwise. Each block holds one binder with its values, some of them ahead of it.
Columns and labels:
[1] = target: T1, FcγRIIIa V extracellular domain with C-terminal His tag (human, UniProt P08637 17-208); test: SPR (Biacore), antibody captured on chip, soluble FcγR as analyte, 1:1 Langmuir fit
T1 construct: extracellular domain; Soluble receptor, V158 allotype; also called FcgRIIIa V; FcgRIIIaV; not shown: His tag at the C terminus
T1 sequence (P08637 17-208 F176V): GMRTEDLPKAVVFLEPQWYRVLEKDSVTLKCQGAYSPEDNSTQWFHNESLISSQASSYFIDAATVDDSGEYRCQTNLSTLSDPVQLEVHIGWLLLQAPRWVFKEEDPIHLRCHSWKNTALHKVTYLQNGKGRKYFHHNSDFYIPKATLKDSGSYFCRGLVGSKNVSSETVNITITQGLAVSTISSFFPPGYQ
Experimental: (§1) Specifically, H240-Hl134 (SEQ ID NO: 88) resulting from introduction of L234Y/L235Y/G236W/H268D/S298A into H240-Hl033 and H240-Kn132 (SEQ ID NO: 89) resulting from introduction of K326D/A330M/K334E into H240-Kn033 were constructed according to the method described in Reference Example 1.
(§2) Analysis of interaction between objective antibody and the FcγR was carried out using Biacore T100 (GE Healthcare), Biacore T200, Biacore A100, and Biacore 4000. HBS-EP+ (GE Healthcare) was used as the running buffer, and the measurement temperature was set to 25° C. Chips produced by immobilizing the antigen peptide by the amine coupling method to a Series S sensor Chip CM5 (GE Healthcare), chips produced by allowing preliminarily biotinylated antigen peptides to interact with and immobilize onto a Series S Sensor Chip SA (certified) (GE Healthcare), chips produced by immobilizing Protein L (ACTIGEN, BioVision) to Series S Sencor Chip CM5 (GE Healthcare), or chips produced by immobilizing Protein A/G (Thermo Scientific) to Series S Sencor Chip CM5 (GE Healthcare) were used. Antibodies of interest were captured onto these chips, and allowed to interact to each FcγR diluted with running buffer. To regenerate and repeatedly use the chip, the antibodies captured onto the chip were washed off by reacting 10 mM glycine-HCl, pH 1.5.

[2] = target: T2, FcγRIIIa F extracellular domain with C-terminal His tag (human, UniProt P08637 17-208); test: as above
T2 construct: extracellular domain; Soluble receptor, F158 allotype; also called FcgRIIIa F; FcgRIIIaF; not shown: His tag at the C terminus
T2 sequence (P08637 17-208): as the sequence (P08637 17-208 F176V) above, with V160F counted along it
Experimental: as §1, §2

[3] = target: T3, FcγRIIIa (human, UniProt P08637 17-208); test: ratio of SPR KDs: KD of GpH7-TA7/GpH7-B78/GpL16-k0 divided by KD of this antibody
T3 construct: extracellular domain; also called FcgRIIIa; CD16A; not shown: His tag attached to the C terminus
T3 sequence (P08637 17-208): as the sequence (P08637 17-208 F176V) above, with V160F counted along it
Description: First, it was considered which H chain should be introduced with Y296W. GpH7-TA52 (SEQ ID NO: 44) resulting from the introduction of the mutation Y296W into GpH7-TA7 was constructed, and expressed and prepared in combination with GpH7-B78 according to the method described in Reference Example 1. Furthermore, GpH7-TA58 (SEQ ID NO: 45) resulting from the introduction of Y296W into GpH7-B78 was constructed, and expressed and prepared in combination with GpH7-TA22 according to the method described in Reference Example 1. To assess the effects of combinations with Y296W, the prepared antibodies were compared for the FcγRIIIa-binding activity according to the method described in Reference Example 2 (Table 16).
(§3) Analysis of interaction between objective antibody and the FcγR was carried out using Biacore T100 (GE Healthcare). HBS-EP+ (GE Healthcare) was used as the running buffer, and the measurement temperature was set to 25° C. Chips produced by immobilizing the antigen peptide by the amine coupling method to a Series S Sencor Chip CM5 (GE Healthcare), or alternatively, chips produced by allowing preliminarily biotinylated antigen peptides to interact with and immobilize onto a Series S Sensor Chip SA (certified) (GE Healthcare) were used. Antibodies of interest were captured onto an antigen peptide-immobilized chip, and allowed to interact to each FcγR diluted with running buffer. To regenerate and repeatedly use the chip, the antibodies captured on the chip were washed off by reacting 10 mM glycine-HCl, pH 1.5.

[4] = target: T3, FcγRIIIa; test: ratio of SPR KDs: KD of GpH7-TA22/GpH7-B78/GpL16-k0 divided by KD of this antibody
Description: Then, GpH7-TA54 (SEQ ID NO: 46) resulting from the introduction of Y296W into GpH7-TA22 was constructed, and expressed and prepared in combination with GpH7-B78 according to the method described in Reference Example 1. Furthermore, GpH7-TA58 (SEQ ID NO: 45) resulting from the introduction of Y296W into GpH7-B78 was constructed, and expressed and prepared in combination with GpH7-TA22 according to the method described in Reference Example 1. To assess the effect of combination with Y296W, the prepared antibodies were compared for the FcγRIIIa-binding activity according to the method described in Reference Example 2 (Table 17).
as §3

B1: H240-Kn061/H240-Hl134/L73-k0 (antibody, human IgG1, kappa)
heavy 1: QDQLVQSGAEVKKPGASVKVSCKASGFNIKDTYIQWVRQAPGQGLEWMGRIDPLRKQTKYREKFEGRVTITADTSTNTAYMELSSLRSEDTAVYYCVRSGREFDYWGQGTLVTVSSASTKGPSVFPLAPSSKSTSGGTAALGCLVKDYFPEPVTVSWNSGALTSGVHTFPAVLQSSGLYSLSSVVTVPSSSLGTQTYICNVNHKPSNTKVDKKVEPKSCDKTHTCPPCPAPEYYWGPSVFLFPPKPKDTLMISRTPEVTCVVVDVSDEDPEVKFNWYVDGVEVHNAKTKPREEQYNATYRVVSVLTVLHQDWLNGKEYKCKVSNKALPAPIEKTISKAKGQPREPQVCTLPPSRDELTKNQVSLWCLVKGFYPSDIAVEWESNGQPENNYKTTPPVLDSDGSFFLYSKLTVDKSRWQQGNVFSCSVMHEALHNHYTQKSLSLSP
heavy 2: B1 heavy 1 with C348Y, D355C, W365S, L367A, Y406V
light: DIQMTQSPSSLSASVGDRVTITCRASQDIHKYIAWYQQKPGQAPRLLIQYTSTLQPGVPSRFSGSGSGTDYTFTISSLQPEDIATYYCLQYEQLRTFGGGTKVEIKRTVAAPSVFIFPPSDEQLKSGTASVVCLLNNFYPREAKVQWKVDNALQSGNSQESVTEQDSKDSTYSLSSTLTLSKADYEKHKVYACEVTHQGLSSPVTKSFNRGEC
notes: Anti-epiregulin IgG1, knobs-into-holes; called homodimerized as both H chains carry L234Y/L235Y/G236W/H268D/S298A
- Kd [1]: 86 nM
- Kd [2]: 660 nM

B2: H240-Kn132/H240-Hl071/L73-k0 (antibody, human IgG1, kappa)
heavy 1: B1 heavy 1 with Y233L, Y234L, W235G, D267H, A297S, K325D, A329M, K333E
heavy 2: QDQLVQSGAEVKKPGASVKVSCKASGFNIKDTYIQWVRQAPGQGLEWMGRIDPLRKQTKYREKFEGRVTITADTSTNTAYMELSSLRSEDTAVYYCVRSGREFDYWGQGTLVTVSSASTKGPSVFPLAPSSKSTSGGTAALGCLVKDYFPEPVTVSWNSGALTSGVHTFPAVLQSSGLYSLSSVVTVPSSSLGTQTYICNVNHKPSNTKVDKKVEPKSCDKTHTCPPCPAPELLGGPSVFLFPPKPKDTLMISRTPEVTCVVVDVSHEDPEVKFNWYVDGVEVHNAKTKPREEQYNSTYRVVSVLTVLHQDWLNGKEYKCKVSNDALPMPIEETISKAKGQPREPQVYTLPPSRCELTKNQVSLSCAVKGFYPSDIAVEWESNGQPENNYKTTPPVLDSDGSFFLVSKLTVDKSRWQQGNVFSCSVMHEALHNHYTQKSLSLSP
light: B1 light
notes: Anti-epiregulin IgG1, knobs-into-holes; called homodimerized as both H chains carry K326D/A330M/K334E
- Kd [1]: 16 nM
- Kd [2]: 77 nM

B3: GpH7-TA7/GpH7-TA58/GpL16-k0 (antibody, human IgG1, kappa)
heavy 1: QVQLVQSGAEVKKPGASVTVSCKASGYTFTDYEMHWIRQPPGEGLEWIGAIDPKTGDTAYSESFQDRVTLTADKSTSTAYMELSSLTSEDTAVYYCTRFYSYTYWGQGTLVTVSSASTKGPSVFPLAPSSKSTSGGTAALGCLVKDYFPEPVTVSWNSGALTSGVHTFPAVLQSSGLYSLSSVVTVPSSSLGTQTYICNVNHKPSNTKVDKKVEPKSCDKTHTCPPCPAPEYLWGPSVFLFPPKPKDTLMISRTPEVTCVVVDVSHEDPEVKFNWYVDGVEVHNAKTKPREEQYNATYRVVSVLTVLHQDWLNGKEYKCKVSNKALPAPIEKTISKAKGQPREPQVYTLPPSRKELTKNQVSLTCLVKGFYPSDIAVEWESNGQPENNYKTTPPVLDSDGSFFLYSKLTVDKSRWQQGNVFSCSVMHEALHNRYTQKSLSLSP
heavy 2: B3 heavy 1 with Y232L, W234G, S237D, Y294W, A296S, A328L, I330E, K354D, R433H, K437E
light: DIVMTQSPLSLPVTPGEPASISCQASESLVHSNRNTYLHWYLQKPGQSPQLLIYKVSNRFSGVPDRFSGSGSGTDFTLKISRVEAEDVGVYYCSQNTHVPPTFGQGTKVEIERTVAAPSVFIFPPSDEQLKSGTASVVCLLNNFYPREAKVQWKVDNALQSGNSQESVTEQDSKDSTYSLSSTLTLSKADYEKHKVYACEVTHQGLSSPVTKSFNRGEC
notes: Anti-glypican-3 IgG1 heterodimer; L234Y/G236W/S298A in H1, S239D/A330L/I332E/Y296W in H2
- KD ratio [3]: 1.2 fold

The next lines start with the values.

- KD ratio [3]: 1.8 fold
B4: GpH7-TA52/GpH7-B78/GpL16-k0 (antibody, human IgG1, kappa)
heavy 1: B3 heavy 1 with Y294W
heavy 2: B3 heavy 1 with Y232L, W234G, S237D, A296S, A328L, I330E, K354D, R433H, K437E
light: B3 light
notes: Anti-glypican-3 IgG1 heterodimer; L234Y/G236W/S298A/Y296W in H1, S239D/A330L/I332E in H2

- KD ratio [4]: 1.3 fold
B5: GpH7-TA54/GpH7-B78/GpL16-k0 (antibody, human IgG1, kappa)
heavy 1: B3 heavy 1 with S237D, Y294W
heavy 2: B3 heavy 1 with Y232L, W234G, S237D, A296S, A328L, I330E, K354D, R433H, K437E
light: B3 light
notes: Anti-glypican-3 IgG1 heterodimer; L234Y/G236W/S239D/S298A/Y296W in H1, S239D/A330L/I332E in H2

- KD ratio [4]: 1 fold
B6: GpH7-TA22/GpH7-TA58/GpL16-k0 (antibody, human IgG1, kappa)
heavy 1: B3 heavy 1 with S237D
heavy 2: B3 heavy 1 with Y232L, W234G, S237D, Y294W, A296S, A328L, I330E, K354D, R433H, K437E
light: B3 light
notes: Anti-glypican-3 IgG1 heterodimer; L234Y/G236W/S239D/S298A in H1, S239D/A330L/I332E/Y296W in H2

Source: patent publication US20150344570A1 (published 2015)
